The text below walks through data of publication PMC7067766, “A receptor for the complement regulator factor H increases transmission of trypanosomes to tsetse flies” (Nature Communications, 2020).

B1: C-terminally biotinylated FHR (residues 25-249, AviTag) (receptor)
chain: NDNLEAELEQTKALCEVAKQLRKLPLLTEERRFEAVGALEESKKAAKEGKKAAKRAEAGAVGGTSEQQQAAKRAREAATVAYEASVRAEAAAMEVKRFARALDSFESEYESVFSGLLRGAAEHGGNETIKQLAKECATAVADDVTPEALTRAAHNLRGLYMQDFAEEYLQEANEAANKLEELQKATAETVRAADAADDAKSEAQEEAAQFPEIDDDDSDEDKEDE
modifications: biotin on the C-terminal AviTag
notes: T. brucei FHR, Tb927.5.4020, residues 25-249, synthetic gene optimized for E. coli in pET15b; TEV site after the His tag; GSGSGSS linker between FHR and the AviTag; also called FHR WT; WT FHR; source: E. coli BL21(DE3), purified (Ni-NTA), biotinylated with BirA; not shown: His6, N-terminal, cleaved; AviTag, C-terminal, kept

Common to all, as to settings: both partners purified
Assay [1] concerns the target T1, bovine complement factor H from serum (bovine (endogenous in bovine serum), UniProt Q28085 19-1236).
T1 construct: complement factor H, bovine, native serum protein of 145 kDa; also called FH; bovine FH; source: endogenous, bovine serum (Sigma-Aldrich); purified from adult bovine serum (FHR-agarose, eluted with glycine-HCl pH 2.5)
T1 sequence: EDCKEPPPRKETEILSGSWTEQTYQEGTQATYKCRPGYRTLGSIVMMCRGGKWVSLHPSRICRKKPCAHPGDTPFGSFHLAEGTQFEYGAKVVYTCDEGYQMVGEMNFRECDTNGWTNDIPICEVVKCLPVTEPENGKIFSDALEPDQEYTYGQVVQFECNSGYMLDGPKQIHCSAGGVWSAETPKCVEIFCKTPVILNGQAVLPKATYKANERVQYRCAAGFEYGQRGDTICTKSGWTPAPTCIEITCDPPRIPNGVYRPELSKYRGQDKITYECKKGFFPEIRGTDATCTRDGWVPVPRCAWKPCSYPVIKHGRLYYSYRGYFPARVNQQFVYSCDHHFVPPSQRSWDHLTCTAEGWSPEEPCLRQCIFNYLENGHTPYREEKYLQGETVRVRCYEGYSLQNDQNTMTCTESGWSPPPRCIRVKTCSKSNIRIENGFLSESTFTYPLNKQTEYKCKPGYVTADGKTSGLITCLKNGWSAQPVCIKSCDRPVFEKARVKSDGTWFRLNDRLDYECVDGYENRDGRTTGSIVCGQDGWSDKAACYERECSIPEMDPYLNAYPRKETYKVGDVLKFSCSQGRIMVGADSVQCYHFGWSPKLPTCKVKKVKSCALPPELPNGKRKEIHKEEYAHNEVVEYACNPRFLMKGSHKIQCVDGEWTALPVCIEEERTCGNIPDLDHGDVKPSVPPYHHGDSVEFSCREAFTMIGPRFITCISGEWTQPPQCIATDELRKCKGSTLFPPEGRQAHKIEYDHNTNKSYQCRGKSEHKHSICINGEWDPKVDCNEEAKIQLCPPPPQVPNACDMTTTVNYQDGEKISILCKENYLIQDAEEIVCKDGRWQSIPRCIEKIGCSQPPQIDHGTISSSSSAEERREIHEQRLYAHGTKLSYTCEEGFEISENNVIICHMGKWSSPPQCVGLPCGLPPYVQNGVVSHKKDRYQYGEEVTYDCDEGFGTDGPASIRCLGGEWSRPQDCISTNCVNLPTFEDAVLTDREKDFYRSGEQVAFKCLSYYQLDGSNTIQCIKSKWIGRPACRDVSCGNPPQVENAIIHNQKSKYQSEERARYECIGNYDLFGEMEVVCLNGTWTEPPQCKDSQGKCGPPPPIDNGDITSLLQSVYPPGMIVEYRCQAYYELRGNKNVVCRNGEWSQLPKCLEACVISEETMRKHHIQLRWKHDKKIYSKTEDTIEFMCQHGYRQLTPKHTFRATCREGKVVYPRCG
The assay can be described thus: SPR; biotinylated FHR or mutant on a streptavidin chip (Biacore T-100/T-200), FH proteins flowed over in twofold dilutions; 20 °C, 10 mM HEPES, 150 mM NaCl, 0.005% Tween-20 pH 7.5; kinetic fit: two-state model (bovine FH) or 1:1 model (bovine domains 4-5-6 and 5).

Assay [2] has as its target T2, recombinant bovine FH, complete (residues 18-1236) (bovine, UniProt Q28085 18-1236).
T2 construct: complement factor H, bovine, complete (residues 18-1236); pDest12; CD33 signal peptide, then 10xHis, AviTag, GSGSGS linker and a TEV site before the ORF; also called full-length bovine FH; recombinant FH; source: G22 CHO cells, secreted, purified (Ni-NTA)
T2 sequence (looked up): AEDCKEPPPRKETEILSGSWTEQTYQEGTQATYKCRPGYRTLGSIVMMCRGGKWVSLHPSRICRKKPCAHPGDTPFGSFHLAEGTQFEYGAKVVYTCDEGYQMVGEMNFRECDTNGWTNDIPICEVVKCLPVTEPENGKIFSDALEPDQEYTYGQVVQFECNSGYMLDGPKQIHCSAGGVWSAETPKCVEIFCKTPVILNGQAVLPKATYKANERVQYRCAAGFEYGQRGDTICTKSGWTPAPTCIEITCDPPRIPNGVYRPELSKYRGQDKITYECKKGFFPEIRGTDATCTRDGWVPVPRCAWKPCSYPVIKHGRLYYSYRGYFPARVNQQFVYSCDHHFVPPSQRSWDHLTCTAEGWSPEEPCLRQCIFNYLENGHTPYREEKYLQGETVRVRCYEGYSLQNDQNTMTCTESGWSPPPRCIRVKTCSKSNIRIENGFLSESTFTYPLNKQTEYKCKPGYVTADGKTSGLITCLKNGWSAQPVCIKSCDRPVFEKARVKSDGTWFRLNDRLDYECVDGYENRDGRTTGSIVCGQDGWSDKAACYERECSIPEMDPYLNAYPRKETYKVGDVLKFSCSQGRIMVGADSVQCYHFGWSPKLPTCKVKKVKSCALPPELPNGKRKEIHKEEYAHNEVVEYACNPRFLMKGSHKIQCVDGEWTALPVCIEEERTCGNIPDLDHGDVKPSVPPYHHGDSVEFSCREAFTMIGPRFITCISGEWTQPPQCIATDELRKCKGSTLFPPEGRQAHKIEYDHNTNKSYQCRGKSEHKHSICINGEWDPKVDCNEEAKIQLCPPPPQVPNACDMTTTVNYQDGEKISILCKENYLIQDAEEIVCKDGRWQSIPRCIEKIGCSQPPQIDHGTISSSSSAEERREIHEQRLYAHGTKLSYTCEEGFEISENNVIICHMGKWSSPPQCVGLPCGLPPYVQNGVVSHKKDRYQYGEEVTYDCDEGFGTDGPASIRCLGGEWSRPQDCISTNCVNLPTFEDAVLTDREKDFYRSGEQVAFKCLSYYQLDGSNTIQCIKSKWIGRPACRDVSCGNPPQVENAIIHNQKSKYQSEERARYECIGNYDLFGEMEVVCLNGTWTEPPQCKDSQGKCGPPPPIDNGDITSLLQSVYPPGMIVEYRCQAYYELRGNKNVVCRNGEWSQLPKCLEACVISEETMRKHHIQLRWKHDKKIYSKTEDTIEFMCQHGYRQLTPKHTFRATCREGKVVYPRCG
The description is as above.

The target of assay [3] is B1. As to the kind of experiment: SPR; biotinylated FHR or mutant 2 on a streptavidin chip, mouse or human FH domains 4-5-6 flowed over; 20 °C, 10 mM HEPES, 150 mM NaCl, 0.005% Tween-20 pH 7.5; steady-state analysis.
The target of assay [4] is B1. As to the kind of experiment: SPR; biotinylated FHR or mutant on a streptavidin chip (Biacore T-100/T-200), FH proteins flowed over in twofold dilutions; 20 °C, 10 mM HEPES, 150 mM NaCl, 0.005% Tween-20 pH 7.5; kinetic fit: two-state model (bovine FH) or 1:1 model (bovine domains 4-5-6 and 5).

B1: the results for the Kd in assay [1] and in assay [2] were 153 nM and 114 nM, respectively.

B2: human FH domains 4-5-6 (residues 207-387) (domain or fragment)
chain: not shown
notes: complement factor H, human, domains 4-5-6 (residues 207-387); pDest12; CD33 signal peptide, ORF, C-terminal GSGSGS linker, AviTag and 10xHis; also called human domains 4-5-6; source: G22 CHO cells, secreted, purified (Ni-NTA)
Regarding B2, the Kd in assay [3] is 8700 nM.

B3: bovine FH domain 5 (residues 264-323), as used in SPR (domain or fragment, UniProt Q28085 264-323, looked up)
chain: EITCDPPRIPNGVYRPELSKYRGQDKITYECKKGFFPEIRGTDATCTRDGWVPVPRCAWK
notes: complement factor H, bovine, domain 5 (residues 264-323); N-terminal tags, a TEV site and an extra serine-glycine linker before domain 5; also called domain 5 alone; source: G22 CHO cells, secreted, purified (Ni-NTA)
For the molecule B3, the Kd in assay [4] was 562 nM.

B4: mouse FH domains 4-5-6 (residues 207-387) (domain or fragment, UniProt P06909 207-387, looked up)
chain: EILCTPPRVENGDGINVKPVYKENERYHYKCKHGYVPKERGDAVCTGSGWSSQPFCEEKRCSPPYILNGIYTPHRIIHRSDDEIRYECNYGFYPVTGSTVSKCTPTGWIPVPRCTLKPCEFPQFKYGRLYYEESLRPNFPVSIGNKYSYKCDNGFSPPSGYSWDYLRCTAQGWEPEVPCVR
notes: complement factor H, mouse, domains 4-5-6 (residues 207-387); pDest12; CD33 signal peptide, ORF, C-terminal GSGSGS linker, AviTag and 10xHis; also called mouse domains 4-5-6; source: G22 CHO cells, secreted, purified (Ni-NTA)
Molecule B4 gave a Kd in assay [3] of 12000 nM.

B5: bovine FH domains 4-5-6 (residues 207-385) (domain or fragment, UniProt Q28085 207-385, looked up)
chain: EIFCKTPVILNGQAVLPKATYKANERVQYRCAAGFEYGQRGDTICTKSGWTPAPTCIEITCDPPRIPNGVYRPELSKYRGQDKITYECKKGFFPEIRGTDATCTRDGWVPVPRCAWKPCSYPVIKHGRLYYSYRGYFPARVNQQFVYSCDHHFVPPSQRSWDHLTCTAEGWSPEEPCLR
notes: complement factor H, bovine, domains 4-5-6 (residues 207-385); pDest12; CD33 signal peptide, ORF, C-terminal GSGSGS linker, AviTag and 10xHis; source: G22 CHO cells, secreted, purified (Ni-NTA)
On to B5, for which the affinity in assay [4], expressed as Kd, was 167 nM.
